Measurements as given in US20030119102A1.

T1: rat Kv4.2 α-subunit (rat) (UniProt Q63881)
T1 sequence (looked up): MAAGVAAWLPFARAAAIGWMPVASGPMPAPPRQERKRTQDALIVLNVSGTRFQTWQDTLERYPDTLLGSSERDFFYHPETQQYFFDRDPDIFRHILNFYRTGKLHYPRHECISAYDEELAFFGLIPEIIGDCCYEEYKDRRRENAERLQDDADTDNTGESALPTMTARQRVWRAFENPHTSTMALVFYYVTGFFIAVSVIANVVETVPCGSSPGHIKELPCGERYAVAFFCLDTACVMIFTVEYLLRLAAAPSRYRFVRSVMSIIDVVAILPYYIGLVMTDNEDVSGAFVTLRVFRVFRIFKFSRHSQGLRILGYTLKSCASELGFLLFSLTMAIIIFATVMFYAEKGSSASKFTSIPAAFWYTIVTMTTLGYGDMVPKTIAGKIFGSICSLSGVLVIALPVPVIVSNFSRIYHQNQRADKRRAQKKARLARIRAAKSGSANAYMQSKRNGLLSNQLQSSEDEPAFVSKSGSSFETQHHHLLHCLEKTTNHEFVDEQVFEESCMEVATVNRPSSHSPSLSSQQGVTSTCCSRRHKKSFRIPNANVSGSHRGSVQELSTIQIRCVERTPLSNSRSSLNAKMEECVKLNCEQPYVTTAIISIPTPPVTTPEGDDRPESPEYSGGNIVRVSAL


Molecular target: T1, rat Kv4.2 α-subunit (rat)
Assay: cell-based or functional assay

Binder	Inactivation time constant (ms, at 50 mV), CHO cells (rKv4.2 + vector: 28.2) [ms]	Peak Current (nA/cell at 50 mV), CHO cells, patch clamp (rKv4.2 + vector: 0.60) [nA/cell]	Peak Current Density (pA/pF at 50 mV), CHO cells (rKv4.2 + vector: 25.5) [pA/pF]	Recovery from Inactivation Time constant, CHO cells (rKv4.2 + vector: 272.2) [ms]
KChIP2 (9ql) (protein, UniProt Q9NS61 1-270, looked up, species assumed) A-type potassium channel modulatory protein KCNIP2: MRGQGRKESLSDSRDLDGSYDQLTGHPPGPTKKALKQRFLKLLPCCGPQALPSVSETLAAPASLRPHRPRLLDPDSVDDEFELSTVCHRPEGLEQLQEQTKFTRKELQVLYRGFKNECPSGIVNEENFKQIYSQFFPQGDSSTYATFLFNAFDTNHDGSVSFEDFVAGLSVILRGTVDDRLNWAFNLYDLNKDGCITKEEMLDIMKSIYDMMGKYTYPALREEAPREHVESFFQKMDRNKDGVVTIEEFIESCQKDENIMRSMQLFDNVI	95.1	3.3	197	49.5
KChIP3 (p19) (protein, UniProt Q9Y2W7 1-256, looked up, species assumed) Calsenilin: MQPAKEVTKASDGSLLGDLGHTPLSKKEGIKWQRPRLSRQALMRCCLVKWILSSTAPQGSDSSDSELELSTVRHQPEGLDQLQAQTKFTKKELQSLYRGFKNECPTGLVDEDTFKLIYAQFFPQGDATTYAHFLFNAFDADGNGAIHFEDFVVGLSILLRGTVHEKLKWAFNLYDINKDGYITKEEMLAIMKSIYDMMGRHTYPILREDAPAEHVERFFEKMDRNQDGVVTIEEFLEACQKDENIMSSMQLFENVI	67.2	3.5	162	126
